Experimental data as given in patent publication US20260000736A1, “PURIFIED LACTOFERRIN COMPOSITIONS AND METHODS OF USE” (Lactea Therapeutics LLC, priority 2023, published 2026).

Tests used:
[1] = tested on: pigs with dermatome wounds; experiment: Pig dermatome wound healing model; format: in vivo; conditions: dermatome wounds 40×40 mm at a depth of 0.76 mm, topical treatment
Description: In a first assessment in a pig model setting, using a dermatome, six wounds were made on each pig with three on the left side and three on the right side of each pig covering a surface area of 40×40 mm at a depth of 0.76 mm. […] For each pig, the wounds on the left of the animal were treated while the wounds on the right wide were left as untreated controls. […] Standard of care was advised on by veterinarians with experience in dealing with wound management in a farm setting.

Cryptococcus neoformans = experiment: Biofilm formation, crystal violet assay; format: cell-based; conditions: 24 hours of growth
Enterococcus faecalis = experiment: Biofilm formation, crystal violet assay; format: cell-based; conditions: 24 hours of growth
lactoperoxidase (LPO) = experiment: Enzymatic colorimetric assay for lactoperoxidase (LPO) activity; format: biochemical; conditions: colorimetric peroxidase substrate
Source text: An enzymatic assay for lactoperoxidase (LPO) activity was developed utilizing a molecule which in the presence of peroxidase activity turns a blue color.

[2] = tested on: Staphylococcus epidermidis; experiment: Biofilm formation, crystal violet assay; format: cell-based; conditions: 24 hours of growth
Bifidobacterium longum = experiment: Planktonic growth in culture, OD600; format: cell-based; conditions: 10-fold serial dilution of Lf, 18 hours
E. coli = experiment: Zone of inhibition test; format: cell-based
Description: A zone of inhibition test was performed to assess bioactivity of API-E2 Lactoferrin. A plate with E. coli was cultured with 100 µg/mL, 10 g/mL, 1 g/mL, and 0.1 g/mL API-E2 Lactoferrin added to paper circles and allowed to diffuse out.

Enterobacter cloacae = experiment: Biofilm formation, crystal violet assay; format: cell-based; conditions: 24 hours of growth
Staphylococcus aureus = experiment: Biofilm formation, crystal violet assay; format: cell-based; conditions: 24 hours of growth
[3] = tested on: salivary human bacteria (including Lactobacillus, Lactococcus, Streptococcus mutans, and Porphyromonas gingivalis); experiment: Poultry surface treatment, chicken breast inoculated with salivary bacteria; conditions: 3 mg/mL surface treatment, 6 days at 37° C.
Description: Chicken breasts were inoculated with salivary human bacteria in a slurry as described above in pH testing (including Lactobacillus, Lactococcus, Streptococcus mutans, and Porphyromonas gingivalis) and left for 6 days at 37° C.

Streptococcus mutans = experiment: Biofilm formation, crystal violet assay; format: cell-based; conditions: 24 hours of growth
[4] = tested on: ECM of primary buccal cells; experiment: ECM association by immunofluorescence in primary buccal cells; format: cell-based; conditions: 100 µg/mL for 1 hr at 37 C
Description: Primary buccal cells were next cultured according to a standard protocol (e.g., see Russo et al. Cytotechnology. 2016 October; 68(5): 2105-2114; herein incorporated by reference for all purposes). […] Immunofluorescence imaging was performed as previously described.

Escherichia coli = experiment: Biofilm formation, crystal violet assay; format: cell-based; conditions: 24 hours of growth
E. coli 0157 = experiment: Bacterial growth timecourse, OD600; format: cell-based; conditions: 1 mg/mL; for Bacterial Growth Timecourse, Replicate 1 / Bacterial Growth Timecourse, Replicate 2 / Bacterial Growth Timecourse, Replicate 3: OD600 relative to no treatment control at 24 hours
Description: For a more detailed comparison of Lactea-Lf antimicrobial activity relative to the Sigma Aldrich Lactoferrin, Lactea-Lf and Sigma Aldrich Lactoferrin were incubated at 1 mg/mL with for E. coli 0157 in LB seeded at 10∝CFU/mL. […] Results were quantified and reported as a percent of the OD600 of the no treatment control at 24 hours for all timepoints.

[5] = tested on: mice with two 10 mm puncture wounds through the skin; experiment: Mouse puncture wound model, survival; format: in vivo
Description: Lactea Lactoferrin (Lactea-Lf) was produced as described in the above examples and freeze-dried by lyophilization into a powder. Lactea-Lf was then administered as the freeze-dried powder in a variety of animal wound contexts.
In a first assessment in a mouse model setting, mice were anesthetized with isoflurane and two 10 mm puncture wounds were made through the skin of each mouse on the back. Three of the mice were treated with Lf added as a freeze dried powder directly into the wound bed while anesthetized immediately after wounds were made, while the three other mice were left completely untreated. Mice were then transferred to non-sterile housing and observed daily.

Candida auris = experiment: Biofilm formation, crystal violet assay; format: cell-based; conditions: 24 hours of growth
SARS-CoV-2 = SARS-CoV-2 Cytopathic Effect (CPE) reduction assay in Vero E6 cells; format: cell-based; conditions: Vero E6 cells, MOI of 0.001, neutral red, three days post-infection
Pseudomonas aeruginosa = experiment: Biofilm formation, crystal violet assay; format: cell-based; conditions: 24 hours of growth
Candida albicans = experiment: Biofilm formation, crystal violet assay; format: cell-based; conditions: 24 hours of growth

B1: Lactea-Lf: bovine lactoferrin purified from raw untreated milk by cation exchange chromatography and filtration according to Example 1 (protein)
chain: APRKNVRWCTISQPEWFKCRRWQWRMKKLGAPSITCVRRAFALECIRAIAEKKADAVTLDGGMVFEAGRDPYKLRPVAAEIYGTKESPQTHYYAVAVVKKGSNFQLDQLQGRKSCHTGLGRSAGWVIPMGILRPYLSWTESLEPLQGAVAKFFSASCVPCIDRQAYPNLCQLCKGEGENQCACSSREPYFGYSGAFKCLQDGAGDVAFVKETTVFENLPEKADRDQYELLCLNNSRAPVDAFKECHLAQVPSHAVVARSVDGKEDLIWKLLSKAQEKFGKNKSRSFQLFGSPPGQRDLLFKDSALGFLRIPSKVDSALYLGSRYLTTLKNLRETAEEVKARYTRVVWCAVGPEEQKKCQQWSQQSGQNVTCATASTTDDCIVLVLKGEADALNLDGGYIYTAGKCGLVPVLAENRKTSKYSSLDCVLRPTEGYLAVAVVKKANEGLTWNSLKDKKSCHTAVDRTAGWNIPMGLIVNQTGSCAFDEFFSQSCAPGRDPKSRLCALCAGDDQGLDKCVPNSKEKYYGYTGAFRCLAEDVGDVAFVKNDTVWENTNGESTADWAKNLNREDFRLLCLDGTRKPVTEAQSCHLAVAPNHAVVSRSDRAAHVKQVLLHQQALFGKNGKNCPDKFCLFKSETKNLLFNDNTECLAKLGGRPTYEEYLGTEYVTAIANLKKCSTSPLLEACAFLTR
With B1 the wound healing [1] was “healing occurred within one day”, the “Inhibition of Biofilm Formation” value (Cryptococcus neoformans) was “Strong (Lf was deemed to have a strong activity if biofilms were eliminated or significantly reduced to less than 90% less than no treatment at concentrations of 10 mg/mL or less after 24 hours of growth)” and the “Inhibition of Biofilm Formation” value (Enterococcus faecalis) was “Strong (Lf was deemed to have a strong activity if biofilms were eliminated or significantly reduced to less than 90% less than no treatment at concentrations of 10 mg/mL or less after 24 hours of growth)”. The “LPO enzymatic activity (blue color reaction)” value (lactoperoxidase (LPO)) was “neither detected by M/S or by the enzymatic assay”, the “Inhibition of Biofilm Formation” value [2] was “Strong (Lf was deemed to have a strong activity if biofilms were eliminated or significantly reduced to less than 90% less than no treatment at concentrations of 10 mg/mL or less after 24 hours of growth)” and the “Inhibition of Planktonic Growth” value (Bifidobacterium longum) was “None”. The zone of inhibition (E. coli; 10 µg/mL on paper circles) was “complete inhibition”, the zone of inhibition (E. coli; 100 µg/mL on paper circles) was “complete inhibition” and the zone of inhibition (E. coli; 0.1 g/mL on paper circles) was “No zone of inhibition”. The zone of inhibition (E. coli; 1 g/mL on paper circles) was “limited zone of inhibition”, the “Inhibition of Biofilm Formation” value (Enterobacter cloacae) was “Strong (Lf was deemed to have a strong activity if biofilms were eliminated or significantly reduced to less than 90% less than no treatment at concentrations of 10 mg/mL or less after 24 hours of growth)” and the “Inhibition of Biofilm Formation” value (Staphylococcus aureus) was “Strong (Lf was deemed to have a strong activity if biofilms were eliminated or significantly reduced to less than 90% less than no treatment at concentrations of 10 mg/mL or less after 24 hours of growth)”. For the same molecule, the “bacterial growth on chicken breast” value [3] was “no detectable growth of any bacteria colonies”, the “Inhibition of Biofilm Formation” value (Streptococcus mutans) was “Strong (Lf was deemed to have a strong activity if biofilms were eliminated or significantly reduced to less than 90% less than no treatment at concentrations of 10 mg/mL or less after 24 hours of growth)” and the “ECM association of Lactoferrin (immunofluorescence imaging)” value [4] was “strong binding along the ECM”. For the same molecule, the “Inhibition of Biofilm Formation” value (Escherichia coli) was “Strong (Lf was deemed to have a strong activity if biofilms were eliminated or significantly reduced to less than 90% less than no treatment at concentrations of 10 mg/mL or less after 24 hours of growth)”, the “inhibition of bacterial growth over time” value (E. coli 0157; E. coli 0157 in LB) was “near complete inhibition of bacterial growth up to 18 hours” and the “time at which bacterial growth became observable / evident” value (E. coli 0157; E. coli 0157 in LB) was 21 h. The “Bacterial Growth Timecourse, Replicate 1” value (E. coli 0157; 3 h) was −0.00372, the “Bacterial Growth Timecourse, Replicate 2” value (E. coli 0157; 3 h) was −0.00129 and the “Bacterial Growth Timecourse, Replicate 3” value (E. coli 0157; 3 h) was 0.02246. The “Bacterial Growth Timecourse, Replicate 1” value (E. coli 0157; 6 h) was 0.007916, the “Bacterial Growth Timecourse, Replicate 2” value (E. coli 0157; 6 h) was 0.01196 and the “Bacterial Growth Timecourse, Replicate 3” value (E. coli 0157; 6 h) was 0.03279. For the same molecule, the “Bacterial Growth Timecourse, Replicate 1” value (E. coli 0157; 9 h) was 0.01583, the “Bacterial Growth Timecourse, Replicate 2” value (E. coli 0157; 9 h) was 0.02246 and the “Bacterial Growth Timecourse, Replicate 3” value (E. coli 0157; 9 h) was 0.02019. The “Bacterial Growth Timecourse, Replicate 1” value (E. coli 0157; 12 h) was 0.04443, the “Bacterial Growth Timecourse, Replicate 2” value (E. coli 0157; 12 h) was 0.04136 and the “Bacterial Growth Timecourse, Replicate 3” value (E. coli 0157; 12 h) was 0.02633. For the same molecule, the “Bacterial Growth Timecourse, Replicate 1” value (E. coli 0157; 15 h) was 0.04976, the “Bacterial Growth Timecourse, Replicate 2” value (E. coli 0157; 15 h) was 0.05816 and the “Bacterial Growth Timecourse, Replicate 3” value (E. coli 0157; 15 h) was 0.04685. For the same molecule, the “Bacterial Growth Timecourse, Replicate 1” value (E. coli 0157; 18 h) was 0.04152, the “Bacterial Growth Timecourse, Replicate 2” value (E. coli 0157; 18 h) was 0.0399 and the “Bacterial Growth Timecourse, Replicate 3” value (E. coli 0157; 18 h) was 0.04281. The “Bacterial Growth Timecourse, Replicate 1” value (E. coli 0157; 21 h) was 0.1997, the “Bacterial Growth Timecourse, Replicate 2” value (E. coli 0157; 21 h) was 0.1696 and the “Bacterial Growth Timecourse, Replicate 3” value (E. coli 0157; 21 h) was 0.106. The “Bacterial Growth Timecourse, Replicate 1” value (E. coli 0157; 24 h) was 0.3648, the “Bacterial Growth Timecourse, Replicate 2” value (E. coli 0157; 24 h) was 0.2898 and the “Bacterial Growth Timecourse, Replicate 3” value (E. coli 0157; 24 h) was 0.2034. The “survival of mice following wounding” value ([5]; freeze dried powder directly into the wound bed, non-sterile housing, study to day 28, all three untreated mice died by day 12) was “only one mouse died at day 14 and the other two survived to the conclusion of the study at day 28”, the “toxicity of powder administered to wounds” value ([5]; mice, freeze-dried powder of pure Lf administered to the wounds) was “no toxicity was observed” and the “Inhibition of Biofilm Formation” value (Candida auris) was “Strong (Lf was deemed to have a strong activity if biofilms were eliminated or significantly reduced to less than 90% less than no treatment at concentrations of 10 mg/mL or less after 24 hours of growth)”. The EC50 (SARS-CoV-2) was 90 nM, the “Inhibition of Biofilm Formation” value (Pseudomonas aeruginosa) was “Strong (Lf was deemed to have a strong activity if biofilms were eliminated or significantly reduced to less than 90% less than no treatment at concentrations of 10 mg/mL or less after 24 hours of growth)” and the “Inhibition of Biofilm Formation” value (Candida albicans) was “Strong (Lf was deemed to have a strong activity if biofilms were eliminated or significantly reduced to less than 90% less than no treatment at concentrations of 10 mg/mL or less after 24 hours of growth)”.
